Measurements published in article PMC11858715 (Molecules, 2025).

T1: sense peptide S2 (YIYRNYPDF), ammodytoxin A segment from position 115 to 124 (Vipera ammodytes)
T1 peptide: YIYRNYPDF

B1: antisense peptide S1A1 (SHHYEP) (designed binder)
peptide: SHHYEP
notes: source: synthetic peptide, bought: GenScript Biotech B.V

Experiments:
Test in all cases: other fluorescence titration
Conditions in all cases: both partners purified
[1] = biological target: T1, sense peptide S2 (YIYRNYPDF), …
[2] = biological target: T1, sense peptide S2 (YIYRNYPDF), …
[3] = biological target: T2, sense peptide S1 ([…]), ammodytoxin A segment from position 6 to 11 (Vipera ammodytes)
T2 construct: source: synthetic peptide, bought: GenScript Biotech B.V

Row | Binder | stoichiometry N [1] | Kd [2] [µM] | Kd [3] [µM]
1 | INISIVGVK (designed binder) [antisense peptide S2A1 (INISIVGVK)] | 1 | 1.1 | 
2 | VNISVIGIK (designed binder) [antisense peptide S2A2 (VNISVIGIK)] | 1 | 8.9 | 
3 | SHHYSP (designed binder) [antisense peptide S1A2 (SHHYSP)] |  |  | 1.4
4 | B1 |  |  | 4.9
